From publication PMC6488673, “Crystal structure of the Lin28-interacting module of human terminal uridylyltransferase that regulates let-7 expression”

Molecular target: T1, hTUT4_N;hLin28A (human;human, UniProt Q5TAX3;Q9H9Z2 253-578+611-723;1-209, internal_change|)
T1 sequence 1: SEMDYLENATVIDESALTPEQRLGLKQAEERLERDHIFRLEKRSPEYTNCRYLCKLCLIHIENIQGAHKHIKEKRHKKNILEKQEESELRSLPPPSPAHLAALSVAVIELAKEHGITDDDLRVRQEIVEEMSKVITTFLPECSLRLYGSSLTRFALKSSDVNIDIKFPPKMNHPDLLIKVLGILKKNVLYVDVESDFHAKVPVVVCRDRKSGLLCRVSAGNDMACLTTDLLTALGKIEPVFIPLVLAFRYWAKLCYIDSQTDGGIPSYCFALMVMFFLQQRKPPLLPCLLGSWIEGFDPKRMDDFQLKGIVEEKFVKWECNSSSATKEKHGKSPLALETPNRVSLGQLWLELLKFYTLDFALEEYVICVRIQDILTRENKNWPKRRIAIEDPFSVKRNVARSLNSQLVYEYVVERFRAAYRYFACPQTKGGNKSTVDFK
T1 sequence 2: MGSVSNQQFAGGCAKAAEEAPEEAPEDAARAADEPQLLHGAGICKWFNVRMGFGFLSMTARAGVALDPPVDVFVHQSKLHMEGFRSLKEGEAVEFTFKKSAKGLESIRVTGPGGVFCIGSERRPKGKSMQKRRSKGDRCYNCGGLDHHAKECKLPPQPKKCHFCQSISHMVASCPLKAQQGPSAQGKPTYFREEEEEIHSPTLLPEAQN
Test: EMSA; ternary complex; 300 nM each protein, 100 nM RNA; EMSA: 50 mM Tris-HCl pH 8.5, 100 mM NaCl, 10 mM MgCl2, 10 mM beta-mercaptoethanol, 10% glycerol, 10 min, room temperature; Tb(III) footprinting: same salts, 5%
Conditions: protein: recombinant;recombinant; tags: C-terminal expression tag, residues 724-731 (pET22b, XhoI, Ni-NTA);N-terminal His tag (pET28b; Ni-NTA purified); copies: 1;1; label: none in EMSA (ethidium bromide stain); hairpin

B1: pre-let-7a-1 (structured_RNA)
RNA: UGAGGUAGUAGGUUGUAUAGUUUUAGGGUCACACCCACCACUGGGAGAUAACUAUACAAUCUACUGUCUUUC
B1: binds.
